Here are results for 3 substances from PMC10810197, “A KDPG sensor RccR governs Pseudomonas aeruginosa carbon metabolism and aminoglycoside antibiotic tolerance” (Nucleic Acids Research, 2023).

Positions count from the first letter of the chain named.

Series [1] concerns the target T1, RccR WT (Pseudomonas aeruginosa PAO1) (UniProt Q9HTC8).
T1 sequence: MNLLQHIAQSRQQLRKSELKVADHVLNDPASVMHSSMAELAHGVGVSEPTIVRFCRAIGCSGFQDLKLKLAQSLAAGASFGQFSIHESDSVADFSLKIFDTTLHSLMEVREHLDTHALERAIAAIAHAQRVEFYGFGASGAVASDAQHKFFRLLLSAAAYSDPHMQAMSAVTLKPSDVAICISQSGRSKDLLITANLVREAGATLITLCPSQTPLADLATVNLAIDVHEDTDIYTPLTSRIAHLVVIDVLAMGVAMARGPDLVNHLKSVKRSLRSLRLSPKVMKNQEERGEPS
Nature of the series: EMSA. As to conditions: EMSA: 10 nM FAM-DNA, 20 mM Tris-HCl pH 8.5, 150 mM KCl, 5 mM MgCl2, 1 mM EDTA, 1 mM DTT, 0.8% Tween 20, 2.5% glycerol, on ice 30 min; 6% native PAGE, 0.5x TBE.

Series [2] concerns the target T2, RccR H164A H164A (Pseudomonas aeruginosa PAO1) (UniProt Q9HTC8).
T2 sequence: T1 sequence with H164A
The series can be described thus: EMSA. The note with it: EMSA: 10 nM FAM-DNA, 20 mM Tris-HCl pH 8.5, 150 mM KCl, 5 mM MgCl2, 1 mM EDTA, 1 mM DTT, 0.8% Tween 20, 2.5% glycerol, on ice 30 min; 6% native PAGE, 0.5x TBE.

The target in series [3] is T3, RccR S139A S139A (Pseudomonas aeruginosa PAO1) (UniProt Q9HTC8).
T3 sequence: T1 sequence with S139A
Nature of the series: EMSA. The note with it: EMSA: 10 nM FAM-DNA, 20 mM Tris-HCl pH 8.5, 150 mM KCl, 5 mM MgCl2, 1 mM EDTA, 1 mM DTT, 0.8% Tween 20, 2.5% glycerol, on ice 30 min; 6% native PAGE, 0.5x TBE. (Mobility shift assays separate free from complexed probe on a gel.)

The target of series [4] is T4, RccR H148A H148A (Pseudomonas aeruginosa PAO1) (UniProt Q9HTC8).
T4 sequence: T1 sequence with H148A
The series can be described thus: EMSA. The note with it: EMSA: 10 nM FAM-DNA, 20 mM Tris-HCl pH 8.5, 150 mM KCl, 5 mM MgCl2, 1 mM EDTA, 1 mM DTT, 0.8% Tween 20, 2.5% glycerol, on ice 30 min; 6% native PAGE, 0.5x TBE.

Series [5] deals with RccR (PA5438), RpiR family transcription factor of Pseudomonas aeruginosa PAO1 (Pseudomonas aeruginosa PAO1). Nature of the series: crystal structure.

Turning to “GGCTTGCTCCAGGGCGGAAAGGCTTCCAGAATCGGATGCCATAGGTGAGCGGCCGGCCTCGTGGGCGACCGCAGCTAATTCTTGGATGTTCTCCGGGGGTGTACCCGGCGACTTGTAGTTTTACTACAGATCAGTCTGAGAAACAGCCCTCTGGATACAATTTTTAGTAGTAAAACTACATTTCGATTGTCGCTGTCAGGCTATAAGGCCCGATGT (double strand) [aceE promoter]”, the binding result was “binds” in series [1], “no binding” in series [2], “no binding” in series [3] and “no binding” in series [4].

As a reminder, the stoichiometry N is a count of units in the complex or per binding partner. “RccR (PA5438), RpiR family transcription factor of Pseudomonas aeruginosa PAO1 (natural protein)”: in series [5], the stoichiometry N is 4.

For “TGTTTGCCTCACTCTGCTCTAGACCAGCTCTGGACCCGGGCCGCACGGCCTTGTAGTCCGAGCCGCGGCATACTACATGATGCCGCGGGAAAAATCAGTGGTTACGCGTCGCGTTACGACTGGATGACGCTTCACGGTCACGTTGGCCAGGCTCAATGTTCGCAAAAAAACTGTACTTTGTTCCAGATAAATCTAAAAACAGTACACGATTTATCACGAGCCCA (double strand) [glcB promoter]”, the binding entry in series [1] was “binds”.
